Among the data in the supplement of paper PMC10219994 are ligation selection enrichment values, retold here.

± gives the standard deviation of the averaged measurements.

First the molecules themselves.
B1: library; a variant is named by its letters at N, in order (parent)
chain: GAGACCGCAACTGAAAAGTTGTGGNNNNNATAGTGAGTCGCTGCCTGCAAAGACACAACT

The data set covers variants of B1. Briefly: ligation selection enrichment (abundance after / before one-round selection) (fold); higher = more template-directed ligation activity. The conditions noted are these: with T7Psub CACGGAUGCUAAUACGACUCACUAUA; MgCl2 25 mM; 42 °C; 4 h; pH 8.5. The procedure, abridged:
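RNA ligase library with five randomized core positions (0.75 μM, T7-transcribed) was reacted with RNA substrate (6 μM) in 50 mM EPPS pH 8.5, 25 mM MgCl2 at 42 °C for 4 h, in two independent experiments. Ligated products were PAGE-purified, reverse transcribed, barcoded by PCR and MiSeq-sequenced. Reads with quality score ≥30 at all randomized positions were counted. Enrichment was abundance after ligation divided by abundance before ligation.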
For the variant GAGACCGCAACTGAAAAGTTGTGGGGTATATAGTGAGTCGCTGCCTGCAAAGACACAACT [GGTAT], the ligation selection enrichment came out at 5.34 ± 1.2.
The result for GAGACCGCAACTGAAAAGTTGTGGGGTACATAGTGAGTCGCTGCCTGCAAAGACACAACT [GGTAC] reads 0.479 ± 0.053; that for GAGACCGCAACTGAAAAGTTGTGGGGTAGATAGTGAGTCGCTGCCTGCAAAGACACAACT [GGTAG], 1.05 ± 0.028; that for GAGACCGCAACTGAAAAGTTGTGGCGGTCATAGTGAGTCGCTGCCTGCAAAGACACAACT [CGGTC], 0.1 ± 0.011.
Then GAGACCGCAACTGAAAAGTTGTGGCGGTTATAGTGAGTCGCTGCCTGCAAAGACACAACT [CGGTT], with 0.202 ± 0.042; and GAGACCGCAACTGAAAAGTTGTGGCGGTAATAGTGAGTCGCTGCCTGCAAAGACACAACT [CGGTA], with 0.133 ± 0.028.
For GAGACCGCAACTGAAAAGTTGTGGCGGTGATAGTGAGTCGCTGCCTGCAAAGACACAACT [CGGTG], the ligation selection enrichment was 0.24 ± 0.069.
Take GAGACCGCAACTGAAAAGTTGTGGCGGCGATAGTGAGTCGCTGCCTGCAAAGACACAACT [CGGCG]: the ligation selection enrichment came out at 0.328 ± 0.1.
Regarding GAGACCGCAACTGAAAAGTTGTGGCGGCTATAGTGAGTCGCTGCCTGCAAAGACACAACT [CGGCT], the ligation selection enrichment was 0.432 ± 0.15.
Then GAGACCGCAACTGAAAAGTTGTGGCGGCAATAGTGAGTCGCTGCCTGCAAAGACACAACT [CGGCA], with 0.177 ± 0.036; and GAGACCGCAACTGAAAAGTTGTGGCGGCCATAGTGAGTCGCTGCCTGCAAAGACACAACT [CGGCC], with 0.134 ± 0.031; and GAGACCGCAACTGAAAAGTTGTGGAGGCAATAGTGAGTCGCTGCCTGCAAAGACACAACT [AGGCA], with 0.255 ± 0.066.
GAGACCGCAACTGAAAAGTTGTGGAGGCTATAGTGAGTCGCTGCCTGCAAAGACACAACT [AGGCT]: the ligation selection enrichment amounted to 0.587 ± 0.3.
The result for GAGACCGCAACTGAAAAGTTGTGGAGGCGATAGTGAGTCGCTGCCTGCAAAGACACAACT [AGGCG] reads 0.527 ± 0.12; that for GAGACCGCAACTGAAAAGTTGTGGAGGCCATAGTGAGTCGCTGCCTGCAAAGACACAACT [AGGCC], 0.21 ± 0.013.
Take GAGACCGCAACTGAAAAGTTGTGGGGTCCATAGTGAGTCGCTGCCTGCAAAGACACAACT [GGTCC]: the ligation selection enrichment came out at 0.277 ± 0.02.
On to GAGACCGCAACTGAAAAGTTGTGGGGTCAATAGTGAGTCGCTGCCTGCAAAGACACAACT [GGTCA], for which the ligation selection enrichment worked out at 0.9187 ± 0.002.
Then GAGACCGCAACTGAAAAGTTGTGGGGCTTATAGTGAGTCGCTGCCTGCAAAGACACAACT [GGCTT], with 0.164 ± 0.12; and GAGACCGCAACTGAAAAGTTGTGGCGCTTATAGTGAGTCGCTGCCTGCAAAGACACAACT [CGCTT], with 0.126 ± 0.017; and GAGACCGCAACTGAAAAGTTGTGGTGGAGATAGTGAGTCGCTGCCTGCAAAGACACAACT [TGGAG], with 1.119 ± 0.0088.
Consider GAGACCGCAACTGAAAAGTTGTGGTGGACATAGTGAGTCGCTGCCTGCAAAGACACAACT [TGGAC], for which the ligation selection enrichment amounted to 24.7 ± 2.8.
Then GAGACCGCAACTGAAAAGTTGTGGTGGAAATAGTGAGTCGCTGCCTGCAAAGACACAACT [TGGAA], with 5.31 ± 0.71; and GAGACCGCAACTGAAAAGTTGTGGTGGATATAGTGAGTCGCTGCCTGCAAAGACACAACT [TGGAT], with 233 ± 62.
The result for GAGACCGCAACTGAAAAGTTGTGGTGTCAATAGTGAGTCGCTGCCTGCAAAGACACAACT [TGTCA] reads 0.325 ± 0.025; that for GAGACCGCAACTGAAAAGTTGTGGTGTCCATAGTGAGTCGCTGCCTGCAAAGACACAACT [TGTCC], 0.338 ± 0.055.
Take GAGACCGCAACTGAAAAGTTGTGGTGGGAATAGTGAGTCGCTGCCTGCAAAGACACAACT [TGGGA]: the ligation selection enrichment was 0.263 ± 0.038.
In the case of GAGACCGCAACTGAAAAGTTGTGGTGGGTATAGTGAGTCGCTGCCTGCAAAGACACAACT [TGGGT], the ligation selection enrichment turned out to be 0.417 ± 0.23.
As for GAGACCGCAACTGAAAAGTTGTGGTGGGGATAGTGAGTCGCTGCCTGCAAAGACACAACT [TGGGG], the ligation selection enrichment was found to be 0.228 ± 0.049.
Then GAGACCGCAACTGAAAAGTTGTGGTGGGCATAGTGAGTCGCTGCCTGCAAAGACACAACT [TGGGC], with 0.171 ± 0.022; and GAGACCGCAACTGAAAAGTTGTGGTGGTTATAGTGAGTCGCTGCCTGCAAAGACACAACT [TGGTT], with 0.438 ± 0.044.
Regarding GAGACCGCAACTGAAAAGTTGTGGTGGTAATAGTGAGTCGCTGCCTGCAAAGACACAACT [TGGTA], the ligation selection enrichment was 0.325 ± 0.017.
Then GAGACCGCAACTGAAAAGTTGTGGTGGTGATAGTGAGTCGCTGCCTGCAAAGACACAACT [TGGTG], with 0.288 ± 0.042.
Consider GAGACCGCAACTGAAAAGTTGTGGTGGTCATAGTGAGTCGCTGCCTGCAAAGACACAACT [TGGTC], for which the ligation selection enrichment came to 0.198 ± 0.019.
Then GAGACCGCAACTGAAAAGTTGTGGCGGGAATAGTGAGTCGCTGCCTGCAAAGACACAACT [CGGGA], with 0.229 ± 0.025.
The result for GAGACCGCAACTGAAAAGTTGTGGCGGGCATAGTGAGTCGCTGCCTGCAAAGACACAACT [CGGGC] reads 0.0737 ± 0.008; that for GAGACCGCAACTGAAAAGTTGTGGCGGGGATAGTGAGTCGCTGCCTGCAAAGACACAACT [CGGGG], 0.165 ± 0.043.
Consider GAGACCGCAACTGAAAAGTTGTGGCGGGTATAGTGAGTCGCTGCCTGCAAAGACACAACT [CGGGT], for which the ligation selection enrichment is 0.147 ± 0.034.
On to GAGACCGCAACTGAAAAGTTGTGGAGGGTATAGTGAGTCGCTGCCTGCAAAGACACAACT [AGGGT], for which the ligation selection enrichment came to 0.289 ± 0.097.
Then GAGACCGCAACTGAAAAGTTGTGGAGGGCATAGTGAGTCGCTGCCTGCAAAGACACAACT [AGGGC], with 0.109 ± 0.0024; and GAGACCGCAACTGAAAAGTTGTGGAGGGAATAGTGAGTCGCTGCCTGCAAAGACACAACT [AGGGA], with 0.322 ± 0.059; and GAGACCGCAACTGAAAAGTTGTGGAGGGGATAGTGAGTCGCTGCCTGCAAAGACACAACT [AGGGG], with 0.251 ± 0.027.
With GAGACCGCAACTGAAAAGTTGTGGGGGGGATAGTGAGTCGCTGCCTGCAAAGACACAACT [GGGGG], the ligation selection enrichment turned out to be 0.405 ± 0.028.
For the variant GAGACCGCAACTGAAAAGTTGTGGGGGGTATAGTGAGTCGCTGCCTGCAAAGACACAACT [GGGGT], the ligation selection enrichment stood at 0.345 ± 0.11.
Regarding GAGACCGCAACTGAAAAGTTGTGGGGGGAATAGTGAGTCGCTGCCTGCAAAGACACAACT [GGGGA], the ligation selection enrichment was 0.608 ± 0.042.
As to GAGACCGCAACTGAAAAGTTGTGGGGGGCATAGTGAGTCGCTGCCTGCAAAGACACAACT [GGGGC], the ligation selection enrichment came out at 0.21 ± 0.0028.
